According to PMC6547412:

T1: eIF4A;eIF4G-MC (eIF4G) (yeast;yeast, UniProt P10081;P39935 1-395;572-952, |)
T1 sequence 1: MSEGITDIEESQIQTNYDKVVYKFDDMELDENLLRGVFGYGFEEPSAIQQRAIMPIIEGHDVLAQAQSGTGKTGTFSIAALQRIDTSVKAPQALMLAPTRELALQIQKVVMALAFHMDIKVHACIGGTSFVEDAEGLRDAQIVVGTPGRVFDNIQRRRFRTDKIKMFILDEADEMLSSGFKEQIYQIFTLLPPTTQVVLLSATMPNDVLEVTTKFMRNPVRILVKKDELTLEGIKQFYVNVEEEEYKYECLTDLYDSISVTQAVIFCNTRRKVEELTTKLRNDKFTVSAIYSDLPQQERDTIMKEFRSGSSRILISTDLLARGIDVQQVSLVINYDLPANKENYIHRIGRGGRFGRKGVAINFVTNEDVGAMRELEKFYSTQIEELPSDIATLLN
T1 sequence 2: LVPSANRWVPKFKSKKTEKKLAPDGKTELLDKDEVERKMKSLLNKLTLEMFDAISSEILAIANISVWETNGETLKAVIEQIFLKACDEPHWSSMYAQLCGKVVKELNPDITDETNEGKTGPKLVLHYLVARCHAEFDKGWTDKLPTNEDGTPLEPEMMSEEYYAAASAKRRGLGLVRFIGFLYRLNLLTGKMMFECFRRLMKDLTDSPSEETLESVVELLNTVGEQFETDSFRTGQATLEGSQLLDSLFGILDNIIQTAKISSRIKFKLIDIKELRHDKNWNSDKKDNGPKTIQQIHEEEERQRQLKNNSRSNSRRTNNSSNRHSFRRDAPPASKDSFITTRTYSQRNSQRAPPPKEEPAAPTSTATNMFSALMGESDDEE

T2: eIF4A;eIF4B;eIF4G-MC (eIF4G) (yeast;yeast;yeast, UniProt P10081;P34167;P39935 1-395;1-436;572-952, ||)
T2 sequence 1: T1 sequence 1
T2 sequence 2: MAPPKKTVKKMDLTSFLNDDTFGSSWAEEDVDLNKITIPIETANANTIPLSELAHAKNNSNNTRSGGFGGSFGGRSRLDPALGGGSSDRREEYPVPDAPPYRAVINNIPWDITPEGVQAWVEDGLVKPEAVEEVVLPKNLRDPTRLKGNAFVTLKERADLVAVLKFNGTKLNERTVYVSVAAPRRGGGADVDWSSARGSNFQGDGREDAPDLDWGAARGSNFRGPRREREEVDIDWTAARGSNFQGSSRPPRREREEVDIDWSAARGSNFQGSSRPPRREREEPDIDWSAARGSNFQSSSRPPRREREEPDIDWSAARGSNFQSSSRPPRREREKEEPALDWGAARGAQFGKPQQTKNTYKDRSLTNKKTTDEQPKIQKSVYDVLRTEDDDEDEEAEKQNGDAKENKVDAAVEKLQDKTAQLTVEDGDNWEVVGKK
T2 sequence 3: T1 sequence 2

T3: eIF4G-MC (eIF4G) (yeast, UniProt P39935 572-952)
T3 sequence: T1 sequence 2

T4: eIF4B (yeast, UniProt P34167 1-436)
T4 sequence: T2 sequence 2

B1: 20/10mer RNA (dsRNA)
RNA 1: ACUAGCACCGUAAAGCACGC
RNA 2: GCUUUACGGU
B2: 30/10mer RNA (dsRNA)
RNA 1: GGGGAGAAAAACUAGCACCGUAAAGCACGC
RNA 2: GCUUUACGGU

Tests used:
eIF4A;eIF4G-MC (eIF4G) = molecular target: T1, eIF4A;eIF4G-MC (eIF4G); test: EMSA
[1] = molecular target: T2, eIF4A;eIF4B;eIF4G-MC (eIF4G); test: fluorescence anisotropy
eIF4G-MC (eIF4G) = molecular target: T3, eIF4G-MC (eIF4G); test: EMSA
eIF4B = molecular target: T4, eIF4B; test: EMSA

Binder	binding result (eIF4A;eIF4G-MC (eIF4G))	Kd [1] [nM]	binding result (eIF4G-MC (eIF4G))	binding result (eIF4B)
B1	binds	3500 ± 500	no binding	
B2		1200 ± 300		binds
